From patent US20220340655A1 (OPSIDIO, published 2022)

Target: human stem cell factor isoform SCF248 (human, UniProt P21583 26-273)
Assay: flow cytometry on S1/S14 hSCF248 cells; printed as BC50 (50% maximal binding)

human stem cell factor isoform SCF248, sequence (P21583 26-189): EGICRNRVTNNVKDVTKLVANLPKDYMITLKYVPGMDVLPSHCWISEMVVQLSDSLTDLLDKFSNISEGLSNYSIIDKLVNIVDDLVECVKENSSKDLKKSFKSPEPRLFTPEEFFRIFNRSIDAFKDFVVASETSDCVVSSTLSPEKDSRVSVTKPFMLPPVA

- EC50: 0.9 µg/mL
B1: 5H10 VH3/VK3 (antibody, human IgG4, V domains shown)
VH: QVQLVQSGAEVKKPGSSVKVSCKSSGYAFSSYWMNWVRQRPGQGLEWIGQIYPGDGDTHYNGKFKGKATLTADKSTSTAYMELSSLRSEDTAVYFCSSSNWVGSYWGQGTLVTVSS
VL: DVVMTQSPLSLPVTLGQPASISCKSSQSLLESDGKTYLNWLQQRPGQSPRRLIYLVSRLDSGVPDRFSGSGSGTDFTLKISRVEAEDVGVYYCWQGTHLPQTFGGGTKVEIK
notes: Humanized; only variable regions are tied to the name
